T1: mouse latent myostatin (mouse, UniProt O08689 26-267; O08689 268-376)
T1 sequence 1: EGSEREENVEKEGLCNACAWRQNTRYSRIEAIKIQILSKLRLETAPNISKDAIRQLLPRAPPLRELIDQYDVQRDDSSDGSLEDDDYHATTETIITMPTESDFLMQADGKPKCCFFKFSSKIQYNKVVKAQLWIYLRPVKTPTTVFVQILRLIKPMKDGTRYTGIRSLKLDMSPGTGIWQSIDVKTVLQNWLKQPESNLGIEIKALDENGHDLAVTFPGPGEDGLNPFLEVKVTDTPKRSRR
T1 sequence 2: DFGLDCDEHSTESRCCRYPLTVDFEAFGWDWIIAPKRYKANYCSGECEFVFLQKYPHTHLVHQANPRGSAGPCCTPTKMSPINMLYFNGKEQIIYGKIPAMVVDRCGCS

T2: cynomolgus monkey latent myostatin (cynomolgus monkey, UniProt Q95J86 25-266; Q95J86 267-375, limits assumed)
T2 construct: also called cyno latent myostatin
T2 sequence 1: T1 sequence 1 with G2N, R5Q, E6K, A19T, R25K, Y26S, R59K, A107V, K140E, S173N
T2 sequence 2: T1 sequence 2

T3: human latent myostatin (human, UniProt O14793 25-266; O14793 267-375)
T3 construct: non-covalent complex of two propeptides and the mature homodimer; also called human myostatin latent form
T3 sequence 1: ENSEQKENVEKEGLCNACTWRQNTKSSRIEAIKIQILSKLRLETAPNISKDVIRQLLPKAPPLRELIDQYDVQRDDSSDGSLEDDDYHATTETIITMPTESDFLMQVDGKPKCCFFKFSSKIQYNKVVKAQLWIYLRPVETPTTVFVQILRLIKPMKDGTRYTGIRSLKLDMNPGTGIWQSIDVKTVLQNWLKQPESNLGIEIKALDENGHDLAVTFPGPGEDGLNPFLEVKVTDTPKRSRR
T3 sequence 2: T1 sequence 2

T4: cyno Fc gamma RIIb extracellular domain, His-tagged (cynomolgus monkey)
T4 construct: also called cynoFcgRIIb
T4 chain: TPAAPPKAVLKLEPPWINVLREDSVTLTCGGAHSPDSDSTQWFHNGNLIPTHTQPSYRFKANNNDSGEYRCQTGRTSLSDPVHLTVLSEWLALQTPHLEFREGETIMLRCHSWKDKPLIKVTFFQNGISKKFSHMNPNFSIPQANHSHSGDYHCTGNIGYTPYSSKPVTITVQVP

T5: human Fc gamma RIIb extracellular domain, His-tagged (human, UniProt P31994 43-217)
T5 construct: also called FcgRIIb
T5 sequence: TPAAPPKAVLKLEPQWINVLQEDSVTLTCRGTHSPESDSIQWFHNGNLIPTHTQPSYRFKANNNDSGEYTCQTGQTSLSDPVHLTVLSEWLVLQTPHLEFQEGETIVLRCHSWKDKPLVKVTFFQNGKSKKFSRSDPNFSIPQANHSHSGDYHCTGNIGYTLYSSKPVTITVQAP

B1: MS_M103205H795-SG1/M103202L889-SK1 (antibody, human IgG1, kappa)
heavy: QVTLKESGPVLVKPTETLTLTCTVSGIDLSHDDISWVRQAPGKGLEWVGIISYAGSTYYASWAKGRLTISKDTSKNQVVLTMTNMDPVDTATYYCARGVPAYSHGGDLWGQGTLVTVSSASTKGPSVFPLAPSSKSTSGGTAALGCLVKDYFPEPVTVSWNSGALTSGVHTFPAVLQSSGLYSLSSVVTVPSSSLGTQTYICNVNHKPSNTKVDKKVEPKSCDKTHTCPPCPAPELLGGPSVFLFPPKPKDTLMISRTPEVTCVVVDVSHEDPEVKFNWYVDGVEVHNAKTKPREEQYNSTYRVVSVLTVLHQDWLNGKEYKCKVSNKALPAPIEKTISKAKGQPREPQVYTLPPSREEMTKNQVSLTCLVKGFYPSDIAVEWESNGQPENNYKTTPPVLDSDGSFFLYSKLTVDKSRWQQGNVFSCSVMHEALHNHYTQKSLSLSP
light: DIVMTQSPATLSLSPGERATLSCTSSQSVYHANWLSWFQQKPGQPPKLLIYWASTLAYGVPSRFSGSGSGTDFTLTISSLQPEDAATYYCAGGYGGGRYAFGQGTKVEIKRTVAAPSVFIFPPSDEQLKSGTASVVCLLNNFYPREAKVQWKVDNALQSGNSQESVTEQDSKDSTYSLSSTLTLSKADYEKHKVYACEVTHQGLSSPVTKSFNRGEC
notes: also called MS1032LO06-SG1
B2: MS_M103205H1004-SG1/M103202L889-SK1 (antibody, human IgG1, kappa, V domains shown)
VH: QVTLKESGPVLVKPTETLTLTCTVSGIDLSHDDISWVRQAPGKGLEWVGIISYAGSMYYASWAKGRLTISKDTSKNQVVLTMTNMDPVDTATYYCARGVPAYSHGGDKWGQGTLVTVSS
VL: DIVMTQSPATLSLSPGERATLSCTSSQSVYHANWLSWFQQKPGQPPKLLIYWASTLAYGVPSRFSGSGSGTDFTLTISSLQPEDAATYYCAGGYGGGRYAFGQGTKVEIKR
notes: also called MS1032LO07-SG1
B3: MS_M103205H1047-SG1/M103202L889-SK1 (antibody, human IgG1, kappa, V domains shown)
VH: B2 VH with D32T, S56K, M57K, K108L
VL: B2 VL
notes: also called MS1032LO11-SG1
B4: MS_M103205H795-SG1/M103202L1060-SK1 (antibody, human IgG1, kappa, V domains shown)
VH: B2 VH with M57T, K108L
VL: B2 VL with Y30F, A32E, Y58W
notes: also called MS1032LO24-SG1
B5: MS_M103205H1046-SG1/M103202L889-SK1 (antibody, human IgG1, kappa, V domains shown)
VH: B2 VH with D32T, S56K, M57T, G65K, K108L
VL: B2 VL
notes: also called MS1032LO10-SG1
B6: MS_M103205H1057-SG1/M103202L889-SK1 (antibody, human IgG1, kappa, V domains shown)
VH: B2 VH with D32T, M57K, Y59K, K108L
VL: B2 VL
notes: also called MS1032LO12-SG1
B7: MS_M103205H707-SG1/M103202L802-SK1 (antibody, human IgG1, kappa, V domains shown)
VH: B2 VH with D32Y, M57T, K108L
VL: B2 VL with A32D, R98L
notes: also called MS1032LO04-SG1
B8: MS_M103205H781-SG1/M103202L813-SK1 (antibody, human IgG1, kappa, V domains shown)
VH: B2 VH with D32T, M57T, A60M, K108L
VL: B2 VL with T24Q, S25T, A32D, Y58S
notes: also called MS1032LO03-SG1
B9: MS_M103205H781-SG1/M103202L719-SK1 (antibody, human IgG1, kappa, V domains shown)
VH: B2 VH with D32T, M57T, A60M, K108L
VL: B2 VL with T24Q, A32N, Y58F, R98L
notes: also called MS1032LO02-SG1
B10: M103205H795-SG1 S298L/M103202L889-SK1 (antibody, human IgG1, kappa)
heavy: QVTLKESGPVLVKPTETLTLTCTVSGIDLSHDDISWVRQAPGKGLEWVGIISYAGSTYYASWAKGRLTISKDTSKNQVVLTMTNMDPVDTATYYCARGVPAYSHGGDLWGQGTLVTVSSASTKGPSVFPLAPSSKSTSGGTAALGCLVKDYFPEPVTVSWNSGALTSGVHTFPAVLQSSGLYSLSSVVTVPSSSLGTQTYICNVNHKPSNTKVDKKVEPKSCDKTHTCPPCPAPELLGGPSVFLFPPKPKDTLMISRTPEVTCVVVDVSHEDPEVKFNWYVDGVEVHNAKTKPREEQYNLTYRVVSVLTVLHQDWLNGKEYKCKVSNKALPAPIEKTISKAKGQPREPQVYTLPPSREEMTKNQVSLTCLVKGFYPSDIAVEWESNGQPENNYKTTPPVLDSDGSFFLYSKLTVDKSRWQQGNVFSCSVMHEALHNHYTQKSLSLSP
light: B1 light
notes: copies: 2 + 2
B11: M103205H795-SG1 Q295L/M103202L889-SK1 (antibody, human IgG1, kappa)
heavy: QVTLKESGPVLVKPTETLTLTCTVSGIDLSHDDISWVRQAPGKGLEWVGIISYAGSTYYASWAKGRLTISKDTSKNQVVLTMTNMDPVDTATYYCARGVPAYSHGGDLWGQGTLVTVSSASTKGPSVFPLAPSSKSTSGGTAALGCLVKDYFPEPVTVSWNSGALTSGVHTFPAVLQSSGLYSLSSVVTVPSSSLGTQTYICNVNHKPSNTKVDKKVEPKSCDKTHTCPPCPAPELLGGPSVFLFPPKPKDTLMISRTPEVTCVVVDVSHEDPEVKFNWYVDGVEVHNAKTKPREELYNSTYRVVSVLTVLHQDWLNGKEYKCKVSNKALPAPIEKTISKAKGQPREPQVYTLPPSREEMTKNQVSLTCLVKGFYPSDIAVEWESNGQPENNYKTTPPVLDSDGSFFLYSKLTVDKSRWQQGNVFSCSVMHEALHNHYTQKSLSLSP
light: B1 light
notes: copies: 2 + 2
B12: M103205H795-SG1 S267A/M103202L889-SK1 (antibody, human IgG1, kappa)
heavy: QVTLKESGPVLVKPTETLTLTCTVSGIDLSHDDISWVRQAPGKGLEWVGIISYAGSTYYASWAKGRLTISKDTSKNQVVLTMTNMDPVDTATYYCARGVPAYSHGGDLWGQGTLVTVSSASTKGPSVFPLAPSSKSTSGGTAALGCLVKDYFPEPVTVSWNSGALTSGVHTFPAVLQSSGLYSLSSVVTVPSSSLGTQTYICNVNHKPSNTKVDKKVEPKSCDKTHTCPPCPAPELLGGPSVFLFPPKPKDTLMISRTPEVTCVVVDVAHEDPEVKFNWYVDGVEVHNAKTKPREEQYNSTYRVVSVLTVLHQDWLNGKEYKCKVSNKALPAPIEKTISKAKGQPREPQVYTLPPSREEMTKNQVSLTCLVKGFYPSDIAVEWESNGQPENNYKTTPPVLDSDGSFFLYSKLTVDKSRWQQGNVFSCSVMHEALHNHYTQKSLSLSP
light: B1 light
notes: copies: 2 + 2
B13: M103205H795-SG1 S239V/M103202L889-SK1 (antibody, human IgG1, kappa)
heavy: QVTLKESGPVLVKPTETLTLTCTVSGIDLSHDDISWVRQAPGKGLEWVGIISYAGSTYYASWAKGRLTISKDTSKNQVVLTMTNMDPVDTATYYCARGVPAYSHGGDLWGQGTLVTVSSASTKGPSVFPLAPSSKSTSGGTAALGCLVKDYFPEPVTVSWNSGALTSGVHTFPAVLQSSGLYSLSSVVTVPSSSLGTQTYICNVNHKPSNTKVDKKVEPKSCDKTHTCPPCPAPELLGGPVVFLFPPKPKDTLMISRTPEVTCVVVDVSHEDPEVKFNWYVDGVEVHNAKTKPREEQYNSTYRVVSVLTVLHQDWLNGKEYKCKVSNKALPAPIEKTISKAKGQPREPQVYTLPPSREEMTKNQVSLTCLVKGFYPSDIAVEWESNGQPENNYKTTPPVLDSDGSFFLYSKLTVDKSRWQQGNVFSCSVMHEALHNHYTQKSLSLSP
light: B1 light
notes: copies: 2 + 2

Residue numbers refer to the chain shown, from its start. In names and notes the source's numbering stands.

For the first assay, the target named is T1, mouse latent myostatin. Description: SPR 37C pH5.8; pH 5.8.
Regarding B1, the Kd came out at 22.6 nM.

The molecule B2 gave a Kd of 30.8 nM.

Molecule B3 registered a Kd of 29.2 nM.

In turn, B4 registered a Kd of 1.02 nM.

Turning to B5, the Kd was 10.9 nM.

As for B6, the Kd was determined as 24.8 nM.

A further assay concerns the target T2, cynomolgus monkey latent myostatin. Description: SPR 37C pH5.8; pH 5.8.
Turning to B1, the Kd came to 25.9 nM.

On to B2, for which the Kd is 34.7 nM.

In the case of B3, the Kd was 43.5 nM.

As for B4, the Kd turned out to be 0.929 nM.

As for B5, the Kd amounted to 16.1 nM.

Molecule B6 gave a Kd of 35.8 nM.

The target of the next assay is T3, human latent myostatin. Description: SPR 37C pH5.8; pH 5.8.
B1: the Kd came out at 34 nM.

Consider B2, for which the Kd is 46.2 nM.

B3 yielded a Kd of 143 nM.

For the molecule B4, the Kd stood at 1.52 nM.

In turn, B5 came in with a Kd of 43.8 nM.

Regarding B6, the Kd is 84.9 nM.

A further assay has as its target T1, mouse latent myostatin. Description: SPR 37C pH7.4; pH 7.4.
In turn, B1 had a Kd of 0.299 nM.

On to B2, for which the Kd was determined as 0.319 nM.

As for B3, the Kd came to 0.362 nM.

In turn, B4 came in with a Kd of 0.176 nM.

In the case of B5, the Kd stood at 0.314 nM.

Regarding B6, the Kd worked out at 0.413 nM.

The target in a further assay is T2, cynomolgus monkey latent myostatin. Briefly: SPR 37C pH7.4; pH 7.4.
For the molecule B1, the Kd worked out at 0.343 nM.

B2 came in with a Kd of 0.339 nM.

The molecule B3 showed a Kd of 0.502 nM.

In the case of B4, the Kd is 0.189 nM.

B5: the Kd was determined as 0.419 nM.

On to B6, for which the Kd was determined as 0.492 nM.

In a further assay the target is T3, human latent myostatin. Description: SPR 37C pH7.4; pH 7.4.
Take B1: the Kd was determined as 0.285 nM.

Molecule B2 returned a Kd of 0.275 nM.

Consider B3, for which the Kd came to 0.419 nM.

As for B4, the Kd amounted to 0.164 nM.

In turn, B5 showed a Kd of 0.351 nM.

B6 gave a Kd of 0.407 nM.

In a further assay the target is T1, mouse latent myostatin. Description: SPR 37C.
As for B1, the “ratio of KD at pH 5.8/pH7.4” value came out at 76.

Take B2: the “ratio of KD at pH 5.8/pH7.4” value was determined as 97.

In the case of B3, the “ratio of KD at pH 5.8/pH7.4” value came to 81.

Regarding B4, the “ratio of KD at pH 5.8/pH7.4” value stood at 6.

For B5, the “ratio of KD at pH 5.8/pH7.4” value turned out to be 35.

Regarding B6, the “ratio of KD at pH 5.8/pH7.4” value is 60.

The target in another assay is T2, cynomolgus monkey latent myostatin. Briefly: SPR 37C.
For B1, the “ratio of KD at pH 5.8/pH7.4” value came to 76.

On to B2, for which the “ratio of KD at pH 5.8/pH7.4” value came out at 102.

In the case of B3, the “ratio of KD at pH 5.8/pH7.4” value is 87.

Take B4: the “ratio of KD at pH 5.8/pH7.4” value stood at 5.

Take B5: the “ratio of KD at pH 5.8/pH7.4” value was found to be 38.

Regarding B6, the “ratio of KD at pH 5.8/pH7.4” value is 73.

The next assay concerns the target T3, human latent myostatin. Description: SPR 37C.
Consider B1, for which the “ratio of KD at pH 5.8/pH7.4” value worked out at 119.

As for B2, the “ratio of KD at pH 5.8/pH7.4” value turned out to be 168.

B3: the “ratio of KD at pH 5.8/pH7.4” value amounted to 341.

With B4, the “ratio of KD at pH 5.8/pH7.4” value is 9.

Turning to B5, the “ratio of KD at pH 5.8/pH7.4” value came to 125.

B6: the “ratio of KD at pH 5.8/pH7.4” value came out at 209.

For another assay, the target named is T3, human latent myostatin. Briefly: SPR affinity condition pH7.4 37C.
As to B7, the Kd was found to be 0.812 nM; the koff (as a rule, a measure of how fast the partners let go of each other) turned out to be 0.00125 s⁻¹; the kon (usually a measure of how fast the partners come together) turned out to be 1.54e+06 M⁻¹ s⁻¹.

On to B8, for which the Kd turned out to be 1.08 nM, the koff was 0.00117 s⁻¹ and the kon amounted to 1.08e+06 M⁻¹ s⁻¹.

B9 yielded a Kd of 1.64 nM, a koff of 0.00179 s⁻¹ and a kon of 1.08e+06 M⁻¹ s⁻¹.

A further assay concerns the target T3, human latent myostatin. Description: SPR avidity condition pH5.8 37C; pH 5.8.
For B7, the Kd worked out at 9.13 nM, the koff was 0.00713 s⁻¹ and the kon came out at 781000 M⁻¹ s⁻¹.

Take B8: the Kd was found to be 9.66 nM, the off-rate (koff) is 0.00524 s⁻¹ and the kon stood at 543000 M⁻¹ s⁻¹.

On to B9, for which the Kd turned out to be 24.3 nM, the koff amounted to 0.0414 s⁻¹ and the kon is 1.7e+06 M⁻¹ s⁻¹.

For a further assay, the target named is T4, cyno Fc gamma RIIb extracellular …. Briefly: SPR 25C.
With B10, the binding result is on record as “binds”.

Regarding B11, the binding result is “binds”.

With B12, the binding result is on record as “binds”.

As for B13, the binding result is recorded as “binds”.

A further assay concerns the target T5, human Fc gamma RIIb extracellular …. Description: SPR 25C.
In the case of B10, the binding result is “binds”.

As for B11, the binding result was “binds”.

For B12, the binding result is listed as “binds”.

For the molecule B13, the binding result is listed as “binds”.

The next assay deals with T3, human latent myostatin. Description: SPR avidity condition pH7.4 37C; pH 7.4.
B7: the Kd was 0.163 nM, the koff was 0.000217 s⁻¹ and the association rate constant (kon) is 1.33e+06 M⁻¹ s⁻¹.

B8 came in with a Kd of 0.196 nM, a dissociation rate constant (koff) of 0.000192 s⁻¹ and a kon of 981000 M⁻¹ s⁻¹.

B9 had a Kd of 0.298 nM, a koff of 0.000249 s⁻¹ and a kon of 836000 M⁻¹ s⁻¹.

These data come from patent EP4755449A2 (CHUGAI SEIYAKU KABUSHIKI KAISHA, dated 2026).
